Experimental data published in patent publication US20250049896A1 (Regeneron, published 2025).

B1: 69348 scFv (VH-VK) (scFv)
chain: QVQLVESGGGVVQPGRSLRLSCAASGFTFTTYGMHWVRQAPGKGLEWVAVIWYDGSNKYYGDSVKGRFTISRDNSKNTLYLQMNSLRVDDTAVYYCTRTHGYTRSSDGFDYWGQGTLVTVSSDIQMTQSPSSLSASVGDRVTITCRASQSIRNVLGWFQQKPGKAPQRLIYAASSLQSGVPSRFSGSGSGTEFTLTISSLQPEDFATYYCLQHNFYPLTFGGGTKVEIK
B2: 69348 Fab (Fab, V domains shown)
VH: QVQLVESGGGVVQPGRSLRLSCAASGFTFTTYGMHWVRQAPGKGLEWVAVIWYDGSNKYYGDSVKGRFTISRDNSKNTLYLQMNSLRVDDTAVYYCTRTHGYTRSSDGFDYWGQGTLVTVSS
VL: DIQMTQSPSSLSASVGDRVTITCRASQSIRNVLGWFQQKPGKAPQRLIYAASSLQSGVPSRFSGSGSGTEFTLTISSLQPEDFATYYCLQHNFYPLTFGGGTKVEIKR
notes: CHO supernatant
B3: 69340 Fab (Fab, V domains shown)
VH: EVQLVESGGGLVQPGRSLRLSCAASGFTFDDKAMHWVRQVPGKGLEWISGISWNSGTIGYADSVKGRFIISRDNAKNSLYLQMNSLRAEDTALYYCAKDGDTSGWYWYGLDVWGQGTTVTVSS
VL: EIVLTQSPATLSLSPGERATLSCRASQSVSSYLAWYQQKPGQAPRLLIHDVSNRATGIPARFSGSGSGTDFTLTISSLEPEDFVVYYCQQRSDWPITFGQGTRLEIKR
notes: CHO supernatant
B4: 69348 scFv (VK-VH) (scFv)
scFv: DIQMTQSPSSLSASVGDRVTITCRASQSIRNVLGWFQQKPGKAPQRLIYAASSLQSGVPSRFSGSGSGTEFTLTISSLQPEDFATYYCLQHNFYPLTFGGGTKVEIKGGGGSGGGGSGGGGSQVQLVESGGGVVQPGRSLRLSCAASGFTFTTYGMHWVRQAPGKGLEWVAVIWYDGSNKYYGDSVKGRFTISRDNSKNTLYLQMNSLRVDDTAVYYCTRTHGYTRSSDGFDYWGQGTLVTVSS
notes: CHO supernatant; Vk-3xG4S-Vh
B5: 69340 scFv (VH-VK) (scFv)
chain: EVQLVESGGGLVQPGRSLRLSCAASGFTFDDKAMHWVRQVPGKGLEWISGISWNSGTIGYADSVKGRFIISRDNAKNSLYLQMNSLRAEDTALYYCAKDGDTSGWYWYGLDVWGQGTTVTVSSEIVLTQSPATLSLSPGERATLSCRASQSVSSYLAWYQQKPGQAPRLLIHDVSNRATGIPARFSGSGSGTDFTLTISSLEPEDFVVYYCQQRSDWPITFGQGTRLEIK
B6: 69332 scFv (VH-VK) (scFv)
chain: QVTLRESGPALVKPSQTLTLTCTFSGFSLNTYGMFVSWIRQPPGKALEWLAHIHWDDDKYYSTSLKTRLTISKDTSKNQVVLTMTNMDPVDTATYYCARGHNNLNYIIHWGQGTLVTVSSAIQMTQSPSSLSASVGDRVTITCRASQGIRNDLGWYQQKPGKAPKLLIYAASTLQSGVPSRFSGSGSGTDFTLTISSLQPEDFATYYCLQDYNYPFTFGPGTKVDIK
B7: 69332 Fab (Fab, V domains shown)
VH: QVTLRESGPALVKPSQTLTLTCTFSGFSLNTYGMFVSWIRQPPGKALEWLAHIHWDDDKYYSTSLKTRLTISKDTSKNQVVLTMTNMDPVDTATYYCARGHNNLNYIIHWGQGTLVTVSS
VL: AIQMTQSPSSLSASVGDRVTITCRASQGIRNDLGWYQQKPGKAPKLLIYAASTLQSGVPSRFSGSGSGTDFTLTISSLQPEDFATYYCLQDYNYPFTFGPGTKVDIKR
notes: CHO supernatant
B8: 69331 scFv (VH-VK) (scFv)
chain: QVQLVESGGGVVQPGRSLRLSCIASGFTFSVYGIHWVRQAPGKGLEWMAVISHDGNIKHYADSVKGRFTISRDNSKNTLYLQINSLRTEDTAVYYCAKDTWNSLDTFDIWGQGTMVTVSSDIQLTQSPSSLSASVGDRVTITCWASQGISSYLAWYQQKPGKAPKLLIYAASTLQSGVPSRFSGSGSGTEFTLTISSLQPEDFATYYCQQLNSYPLTFGGGTKVEIK
B9: 69340 scFv (VK-VH) (scFv)
scFv: EIVLTQSPATLSLSPGERATLSCRASQSVSSYLAWYQQKPGQAPRLLIHDVSNRATGIPARFSGSGSGTDFTLTISSLEPEDFVVYYCQQRSDWPITFGQGTRLEIKGGGGSGGGGSGGGGSEVQLVESGGGLVQPGRSLRLSCAASGFTFDDKAMHWVRQVPGKGLEWISGISWNSGTIGYADSVKGRFIISRDNAKNSLYLQMNSLRAEDTALYYCAKDGDTSGWYWYGLDVWGQGTTVTVSS
notes: CHO supernatant; Vk-3xG4S-Vh
B10: 69331 scFv (VK-VH) (scFv)
scFv: DIQLTQSPSSLSASVGDRVTITCWASQGISSYLAWYQQKPGKAPKLLIYAASTLQSGVPSRFSGSGSGTEFTLTISSLQPEDFATYYCQQLNSYPLTFGGGTKVEIKGGGGSGGGGSGGGGSQVQLVESGGGVVQPGRSLRLSCIASGFTFSVYGIHWVRQAPGKGLEWMAVISHDGNIKHYADSVKGRFTISRDNSKNTLYLQINSLRTEDTAVYYCAKDTWNSLDTFDIWGQGTMVTVSS
notes: CHO supernatant; Vk-3xG4S-Vh
B11: 69332 scFv (VK-VH) (scFv)
scFv: AIQMTQSPSSLSASVGDRVTITCRASQGIRNDLGWYQQKPGKAPKLLIYAASTLQSGVPSRFSGSGSGTDFTLTISSLQPEDFATYYCLQDYNYPFTFGPGTKVDIKGGGGSGGGGSGGGGSQVTLRESGPALVKPSQTLTLTCTFSGFSLNTYGMFVSWIRQPPGKALEWLAHIHWDDDKYYSTSLKTRLTISKDTSKNQVVLTMTNMDPVDTATYYCARGHNNLNYIIHWGQGTLVTVSS
notes: CHO supernatant; Vk-3xG4S-Vh

biological target: T1, Hmm-hTFRC (REGN2431), monomeric human transferrin receptor ectodomain with N-terminal hexahistidine-myc-myc … (human, UniProt P02786 89-760); experiment: blocking ELISA, supernatant; Hmm-hTFRC binding to immobilized human holo-Tf
T1 construct: also called hmm.hTfR(C89-F763); His-myc-myc-hTFRC ecto
Procedure, shortened: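 Plates were coated with anti-hTf goat pAb at 2 µg/mL overnight at 4 °C, then loaded with human holo-Tf at 1 µg/mL for 2 h at room temperature. Bound receptor was detected with TMB and absorbance read at 450 nm.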

T1 sequence (P02786 other isoform, or with tags, fused parts or gaps): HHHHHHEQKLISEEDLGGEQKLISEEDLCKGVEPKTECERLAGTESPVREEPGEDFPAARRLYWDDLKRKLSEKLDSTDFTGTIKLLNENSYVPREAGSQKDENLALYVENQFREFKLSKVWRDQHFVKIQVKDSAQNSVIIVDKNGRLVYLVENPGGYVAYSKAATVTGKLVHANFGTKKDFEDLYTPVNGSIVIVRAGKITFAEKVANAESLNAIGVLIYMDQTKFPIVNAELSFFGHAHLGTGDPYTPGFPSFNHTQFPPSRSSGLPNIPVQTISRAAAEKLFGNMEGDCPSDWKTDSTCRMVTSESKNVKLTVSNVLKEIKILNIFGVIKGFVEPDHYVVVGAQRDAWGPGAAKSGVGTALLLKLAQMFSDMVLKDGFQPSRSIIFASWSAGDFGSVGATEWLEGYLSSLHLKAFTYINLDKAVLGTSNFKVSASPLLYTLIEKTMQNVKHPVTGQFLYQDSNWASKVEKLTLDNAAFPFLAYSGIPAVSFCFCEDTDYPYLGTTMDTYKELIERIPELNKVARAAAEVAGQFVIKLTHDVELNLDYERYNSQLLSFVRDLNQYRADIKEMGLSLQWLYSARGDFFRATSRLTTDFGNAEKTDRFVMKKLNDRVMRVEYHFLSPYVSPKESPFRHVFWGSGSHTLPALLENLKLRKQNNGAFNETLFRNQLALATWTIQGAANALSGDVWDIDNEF

Row | % Blocking [%] | Binder
1 | 0 | B1
2 | 40 | B2
3 | 3 | B3
4 | 16 | B4
5 | 6 | B5
6 | 6 | B6
7 | 18 | B7
8 | 7 | B8
9 | 13 | B9
10 | 13 | B10
11 | 22 | B11
